In general, stoichiometry N refers to the number of molecules, sites or subunits per partner or assembly.

The assay deals with AtaT (G108D) (enterohemorrhagic E. coli O157:H7). The assay can be described thus: crystal structure.

The substance AtaT (G108D) (enzyme) came in with a stoichiometry N of 2.
